Laboratory results: paper PMC4720891

Target: HA-Mdm2 (human) (UniProt Q00987)
Sequence (Q00987 whole entry): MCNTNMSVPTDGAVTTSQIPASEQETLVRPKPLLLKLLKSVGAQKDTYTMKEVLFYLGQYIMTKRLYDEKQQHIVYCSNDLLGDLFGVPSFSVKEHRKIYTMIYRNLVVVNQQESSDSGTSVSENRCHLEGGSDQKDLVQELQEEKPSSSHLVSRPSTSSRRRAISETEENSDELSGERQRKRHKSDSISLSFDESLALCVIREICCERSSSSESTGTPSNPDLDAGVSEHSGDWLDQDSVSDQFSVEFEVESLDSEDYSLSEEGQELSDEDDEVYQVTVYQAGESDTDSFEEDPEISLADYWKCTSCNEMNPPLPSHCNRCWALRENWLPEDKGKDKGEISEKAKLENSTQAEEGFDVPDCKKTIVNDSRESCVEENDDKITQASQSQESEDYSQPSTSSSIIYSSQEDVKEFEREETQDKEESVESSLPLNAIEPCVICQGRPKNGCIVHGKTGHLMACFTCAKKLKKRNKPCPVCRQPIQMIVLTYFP

B1: FLAG-MdmX (natural protein)
chain: MTSFSTSAQCSTSDSACRISPGQINQVRPKLPLLKILHAAGAQGEMFTVKEVMHYLGQYIMVKQLYDQQEQHMVYCGGDLLGELLGRQSFSVKDPSPLYDMLRKNLVTLATATTDAAQTLALAQDHSMDIPSQDQLKQSAEESSTSRKRTTEDDIPTLPTSEHKCIHSREDEDLIENLAQDETSRLDLGFEEWDVAGLPWWFLGNLRSNYTPRSNGSTDLQTNQDVGTAIVSDTTDDLWFLNESVSEQLGVGIKVEAADTEQTSEEVGKVSDKKVIEVGKNDDLEDSKSLSDDTDVEVTSEDEWQCTECKKFNSPSKRYCFRCWALRKDWYSDCSKLTHSLSTSDITAIPEKENEGNDVPDCRRTISAPVVRPKDAYIKKENSKLFDPCNSVEFLDLAHSSESQETISSMGEQLDNLSEQRTDTENMEDCQNLLKPCSLCEKRPRDGNIIHGRTGHLVTCFHCARRLKKAGASCPICKKEIQLVIKVFIA
  FRET (HTRF) signal of MdmX-stimulated Mdm2 autoubiquitination in vitro, against the baseline without MdmX; rises with MdmX concentration and with reaction time: 8 fold
